Test results as given in US8124742.

T1: human Rh(D) antigen on Rh(D)-positive red blood cells (human, UniProt Q02161 2-417)
T1 construct: whole, on cells; also called wt; wild type Rh(D)
T1 sequence (looked up): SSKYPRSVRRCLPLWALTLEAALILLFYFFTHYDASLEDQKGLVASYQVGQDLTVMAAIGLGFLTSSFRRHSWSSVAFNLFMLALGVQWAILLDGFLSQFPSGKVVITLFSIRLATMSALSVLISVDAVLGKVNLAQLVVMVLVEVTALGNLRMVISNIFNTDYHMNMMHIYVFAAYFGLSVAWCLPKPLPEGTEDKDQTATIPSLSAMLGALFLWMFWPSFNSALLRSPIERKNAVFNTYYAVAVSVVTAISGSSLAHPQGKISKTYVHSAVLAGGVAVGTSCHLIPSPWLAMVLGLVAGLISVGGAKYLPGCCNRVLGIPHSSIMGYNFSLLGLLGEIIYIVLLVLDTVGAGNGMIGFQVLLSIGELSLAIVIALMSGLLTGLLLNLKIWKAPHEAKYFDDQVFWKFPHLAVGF

B1: E1/M2 (Fab, V domains shown)
VH: EVQLLESGGGLVKPGGSLRLSCAASGFTFSSYSMHWVRQAPGKGLEWVSSISNSNTYIYYADAVKGRFTISRDNAKNSLYLQMNSLRAEDTAVYYCARDSRYSNFLRWVRSDGMDVWGQGTTVIVSS
VL: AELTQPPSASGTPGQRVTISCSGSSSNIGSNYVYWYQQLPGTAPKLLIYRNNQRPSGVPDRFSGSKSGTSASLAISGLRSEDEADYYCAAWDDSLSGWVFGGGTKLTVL
notes: Fab on M13 phage; heavy chain E1 with λ light chain M2; also called E01/M02
B2: E1/L3 (Fab, V domains shown)
VH: EVQLLESGGGLVKPGGSLRLSCAASGFTFSSYSMHWVRQAPGKGLEWVSSISNSNTYIYYADAVKGRFTISRDNAKNSLYLQMNSLRAEDTAVYYCARDSRYSNFLRWVRSDGMDVWGQGTTVIVSS
VL: AELTQPPSASGTPGQRVTISCSGSSSNIGNNHVSWYQQLPGMAPKLLIYSNGQRPSGVPDRFSGSKSGTSASLAISGLQSEDEADYYCAAWHDSLYGPVFGGGTKLTVL
notes: Fab on M13 phage; also called E1 with L3
B3: E1/L4 (Fab, V domains shown)
VH: EVQLLESGGGLVKPGGSLRLSCAASGFTFSSYSMHWVRQAPGKGLEWVSSISNSNTYIYYADAVKGRFTISRDNAKNSLYLQMNSLRAEDTAVYYCARDSRYSNFLRWVRSDGMDVWGQGTTVIVSS
VL: AELTQPPSASGTPGQRVSISCSGSSSNIGSNTVNWYQQLPGTAPKLLISTNNQGPSGVPDRFSGSKSGTSSSLAISGLRSEAEDDYYCAAWDDTLNGVVFGGGTKLTVL
notes: Fab on M13 phage; also called E1 with L4
B4: E1/M3 (Fab, V domains shown)
VH: EVQLLESGGGLVKPGGSLRLSCAASGFTFSSYSMHWVRQAPGKGLEWVSSISNSNTYIYYADAVKGRFTISRDNAKNSLYLQMNSLRAEDTAVYYCARDSRYSNFLRWVRSDGMDVWGQGTTVIVSS
VL: AELTQPPSASGTPGQRVTISCSGSSSNIGSNYVYWYQQLPGTAPKLLIYRNNQRPSGVPDRFSGSKSGTSASLAISGLRSEAEADYYCAAWDDSLSAVVFGGGTKLTVLL
notes: used both as Fab on M13 phage and as soluble γ1λ Fab; also called E01/M03; anti-epD3
B5: SH41 (Fab, V domains shown)
VH: EVQLLESGGGVVQPGRSLRLSCAASGFTFSTYGMHWVRQAPGKGLEWVAVIWFDGSNKEYADSVKGRFTISRDNSKNTLYLQMNSLRAEDTAVYYCAREEVVRGVILWSRKFDYWGQGTLVTVSS
VL: AELTQSPSSLSASVGDRVTITCRASQNIRRSLNWYQHKPGRAPRLLIYAASTLQSGVPSRFRGSGSGTDFTLTINSLQPADFATYYCQQSSNTPWTFGHGTKVEIKR
notes: Fab on M13 phage
B6: SH44 (Fab, V domains shown)
VH: EVQLLESGGGVAQPGRSLRLSCVASGFSLRSYGMHWVRQAPGKGLEWVADIWFDGSNKDYADSVKGRFTISRDNSKNTLYLQMNSLRAEDTAVYYCARDWRVRAFSSGWLSAFDIWGQGTMVTVSS
VL: AELTQSPSSLSASVGDRVIITCRASQTIPRFLNWYQQKPGKAPVLLIHSISSLQSGVPSRFSASGSGTEFTLTISSLQPEDFATYYCQQSYSNLSFGPGTTVDIRR
notes: Fab on M13 phage
B7: SH46 (Fab, V domains shown)
VH: VQLLEESGGGVVQPGRSLRLSCAASGFTFSSYGMHWVRQAPGRGLEWVALIWYDGGNKEYADSVKGRFSISRDNSKNTLYLQVNSLRADDTAVYYCARDQRAAAGIFYYSRMDVWGQGTTVTVSS
VL: AELTQSPSSLSASVGDRVTITCRASQYISSYLNWYQQKPGKAPNLLIYAASSLQSGVPSRFSGSGSGTDFTLTISSLQPEDFATYYCQQTYSSPSTFGPGTKVDIKR
notes: Fab on M13 phage
B8: SH47 (Fab, V domains shown)
VH: EVQLLESGGGVVQPGRSLRLSCAASGFSFSNYAMHWVRQAPGKGLEWVAVTSFDGSIKDYADSVKGRFTISRDNSKNTLYLQMNSLRDEDTAVYYCARERGMIVVVRRRNAFDIWGQGTMVTVSS
VL: AELTQSPSSLSASVGDRVTITCRASQSISNYLNWYQQKPGKAPNLLIYAASSLQSGVPSRFSGSGSGTDFTLTISSLQPEDFATYYCQQSYSYPRTFGQGTKVEIRR
notes: Fab on M13 phage
B9: SH48 (Fab, V domains shown)
VH: EVQLLESGGGVVQPGRSLRLSCAASGFSFSSYGMHWVRQAPGKGLEWVAVISYDGTNKYFADSVKGRFTISRDNSKKTLYLQMTSLRPEDTAVYFCANLRGEVTRRASVPLDIWGQGTMVTVSS
VL: AELTQSPSSLSASVGDRVTITCRASQYISSYLNWYQQKPGKAPNLLIYAASSLQSGVPSRFSGSGSGTDFTLTISSLQPEDFATYYCQQTYSSPSTFGPGTKVDIKR
notes: Fab on M13 phage
B10: SH49 (Fab, V domains shown)
VH: EVQLLESGGGVVQPGRSLRLACAASGFSFRSYGMHWVRQAPGRGLEWVAFTWFDGSNKYYVDSVKGRFTISRDNSKNTLYLEMNSLRVDDTAVYYCAREASMLRGISRYYYAMDVWGPGTTVTVSS
VL: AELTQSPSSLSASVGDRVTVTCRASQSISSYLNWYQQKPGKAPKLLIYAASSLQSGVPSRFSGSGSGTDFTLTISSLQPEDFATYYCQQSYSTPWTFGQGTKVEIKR
notes: Fab on M13 phage
B11: SH51 (Fab, V domains shown)
VH: EVQLLESGGGVVQPGRSLRLACAASGFSFRSYGMHWVRQAPGRGLEWVAFTWFDGSNKYYVDSVKGRFTISRDNSKNTLYLEMNSLRVDDTAVYYCAREASMLRGISRYYYAMDVWGPGTTVTVSS
VL: AELTQSPSFLSASVGDRVTITCRASQGIRSYLAWYQQKPGKAPKLLIYAASTLQSGVPSRFSGSGSGTEFTLTISSLQPEDFATYYCQQLNNYPPFTFGPGTKVDIKR
notes: Fab on M13 phage
B12: SH53 (Fab, V domains shown)
VH: EVQLLESGGGGVQPGRSLRLSCAASGFTFNSYAMYWVRQPPGKGLEWVAAIWYDGSNKEYADFVKGRFTISRDNSKNTLSLQMNSLRDEDTAVYYCAREANLLRGWSRYYYGMDVWGQGTTVTVSS
VL: AELQDPVVSVALGQTVRITCQGDGLRSYYASWYQQKPGQAPKLVMYGRNNRPSGIPGRFSGSSSGQTAALTITGTQAEDEADYYCQSRATSGNPVVFGGGTKLTVL
notes: Fab on M13 phage
B13: SH54 (Fab, V domains shown)
VH: EVQLLESGGGVVQPGRSLRLSCAASGFTFSRNGMHWVRQAPGKGLEWVAFIWFDGSNKYYADSVKGRFTISRDNSKNTLYLQMNSLRADDTAVYYCAREEALFRGLTRWSYGMDVWGQGTTVSVSS
VL: AELTQSPSSMSASVGDRVTITCRASQSIGTYLNWYQQKPGKAPKLLIYAASSLQSGVPSRFSGSGSGTDFTLTISSLQPEDFATYYCQQSYSTPWTFGQGTKVEIKR
notes: Fab on M13 phage
B14: SH55 (Fab, V domains shown)
VH: EVQLLESGGGVVQPGRSLRLSCVVSGFTFNNYGMHWVRQAPGKGLEWVAVIWFDGSNKYYADSVKGRFTISRDNSKNTLYLQMNSLRAEDTAVYYCARENQIKLWSRYLYYFDYWGQGTLVTVSS
VL: AELTQPPSASGTPGQRVTISCSGSSSNIGSKYVYWYQQLPGTAPKLLIYSNNQRPSGVPDRFSAFKSGTSASLAITGLQAEDEANYYCQSYDSGLSGWVFGGGTKLTVL
notes: Fab on M13 phage

These binders were tested against T1, human Rh(D) antigen on Rh(D)-positive … (assay: agglutination, anti-M13).
B1: binds. B2: binds. B3: binds. B4: binds.

Target: T1, human Rh(D) antigen on Rh(D)-positive …
Assay: agglutination, anti-M13
Remark: another data set of the same source
Protocol: The binding of anti-Rh(D) Fab/phage or soluble Fab molecules to normal or partial Rh(D) antigens was assessed by indirect agglutination assays as described (Siegel et al., 1994, Blood 83:2334; Siegel et al., 1997, J. Immunol. Meth. 206: 73). […] Following a one-hour incubation at 37° C., the RBCs were washed 3 times with 2 ml of cold PBS to remove unbound antibody. The resulting RBC pellets were resuspended in 100 μl of a 10 μg/ml solution of sheep anti-M13 antibody (5 Prime-3 Prime, Boulder, Colo.) for Fab/phage experiments or goat anti-human κ or λ light chain antibody (Tago, Burlingame, Calif.) for $\gamma_1\kappa$ or $\gamma_1\lambda$ soluble Fab experiments, respectively. The RBC suspensions were transferred to the round-bottomed wells of a 96-well microplate and left undisturbed for 2 hours. Negative reactions show sharp ~2 millimeter diameter RBC spots whereas the RBCs in agglutinated wells form a thin carpet coating the entire floor of the well (Siegel et al., 1997, J. Immunol. Meth. 206:73). Agglutination titers for recombinant antibodies were determined by performing serial 2-fold dilutions in 1% BSA/PBS.
Fifty-six randomly chosen colonies were selected, and monoclonal Fab/phage preparations were separately produced from each of these individual colonies, using the methods described herein in Example 1. Rh(D) specificity was determined by indirect agglutination using anti-M13 antibody, as described herein in Examples 1 and 2.
B5: binds. B6: binds. B7: binds. B8: binds. B9: binds. B10: binds. B11: binds. B12: binds. B13: binds. B14: binds.
